Patent publication US20060193821, “Aptamers to the human IL-12 cytokine family and their use as autoimmune disease therapeutics” (published 2006)

Assays:
[1] = target: T1, IL-23 (mouse, p19/p40 heterodimer) (Mus musculus, UniProt Q9EQ14;P43432 SEQ:22-196,SEQ:23-335); assay: filter; 1X PBS, 0.1 mg/mL BSA, 30 min RT; conditions: tags: isolated in-house; label: 32P
T1 sequence 1: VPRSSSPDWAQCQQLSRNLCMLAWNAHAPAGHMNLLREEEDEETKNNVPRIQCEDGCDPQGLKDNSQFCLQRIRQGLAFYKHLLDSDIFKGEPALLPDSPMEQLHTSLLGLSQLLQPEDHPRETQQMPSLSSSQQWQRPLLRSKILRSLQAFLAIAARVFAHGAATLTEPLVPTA
T1 sequence 2: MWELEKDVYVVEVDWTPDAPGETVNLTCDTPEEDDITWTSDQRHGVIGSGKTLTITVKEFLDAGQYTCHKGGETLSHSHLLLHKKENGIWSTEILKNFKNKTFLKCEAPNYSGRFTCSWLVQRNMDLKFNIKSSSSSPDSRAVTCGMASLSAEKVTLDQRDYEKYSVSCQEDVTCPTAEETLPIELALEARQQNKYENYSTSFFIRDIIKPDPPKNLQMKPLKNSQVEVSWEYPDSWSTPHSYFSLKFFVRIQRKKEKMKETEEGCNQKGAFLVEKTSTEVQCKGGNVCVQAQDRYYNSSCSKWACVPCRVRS
Description: (§1) rRfY-mIL-23S/mIL-12 neg Protein Binding Analysis. The dot blot binding assays previously described were performed throughout the selection to monitor the protein binding affinity of the pool. Trace ³²P-labeled RNA was combined with mIL-23 or mIL-12 and incubated at room temperature for 30 min in 1×PBS plus 0.1 mg/mL BSA for a final volume of 30 μL. The reaction was added to a dot blot apparatus (Schleicher and Schuell Minifold-1 Dot Blot, Acrylic). Binding curves were generated as described in previous sections. When a significant level of binding of RNA in the presence of mIL-23 was observed, the pool was cloned using the TOPO TA cloning kit (Invitrogen, Carlsbad, Calif.) according to the manufacturer's instructions. The Round 9 pool template was cloned, and 10 individual clones from the selection were assayed in an 8-point dot blot titration against mIL-23. […] Four of the 10 total clones screened bound especially to mIL-23 and mIL-12 at varying affinities.

[2] = target: T2, IL-12 (mouse, p35/p40 heterodimer) (Mus musculus, UniProt P43431;P43432 SEQ:23-215,SEQ:23-335); assay: filter; 1X PBS, 0.1 mg/mL BSA, 30 min RT; conditions: label: 32P
T2 sequence 1: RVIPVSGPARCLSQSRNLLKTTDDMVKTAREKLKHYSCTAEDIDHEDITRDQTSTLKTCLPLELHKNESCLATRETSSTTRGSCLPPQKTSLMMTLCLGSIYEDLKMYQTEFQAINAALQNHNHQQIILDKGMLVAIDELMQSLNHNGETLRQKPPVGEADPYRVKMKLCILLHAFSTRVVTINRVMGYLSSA
T2 sequence 2: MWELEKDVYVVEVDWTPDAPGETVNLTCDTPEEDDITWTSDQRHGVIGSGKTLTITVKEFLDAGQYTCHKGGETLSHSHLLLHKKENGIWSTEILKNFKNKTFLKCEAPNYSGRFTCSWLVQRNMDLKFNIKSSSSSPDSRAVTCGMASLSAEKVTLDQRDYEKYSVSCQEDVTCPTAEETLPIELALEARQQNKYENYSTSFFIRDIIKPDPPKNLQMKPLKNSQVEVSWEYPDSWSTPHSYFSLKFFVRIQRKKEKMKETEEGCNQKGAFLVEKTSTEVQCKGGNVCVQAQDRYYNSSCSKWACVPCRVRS
Description: as §1

[3] = target: T3, IL-23 (human, p19/p40 heterodimer) (Homo sapiens, UniProt Q9NPF7;P29460 SEQ:20-189,SEQ:23-328); assay: competition; direct +tRNA 117 nM; conditions: tags: R&D Systems, carrier free
Description: (§2) Several of the minimized constructs from the dRmY Selection 2 were also assayed in a competition format in which cold aptamer was titrated and competed away trace ³²P ATP labeled aptamer In the competition assay, the [IL-23] was held constant, the [trace labeled aptamer] was held constant, and the [unlabeled aptamer] was varied. The KD was calculated by fitting the following equation to the data: Fraction aptamer bound=amplitude*([aptamer]/(KD+[aptamer]))+background binding.
Table 25 below summarizes the minimized sequences and the parent clone from which they were derived, and Table 26 summarizes the binding characterization from direct binding assays (+/−tRNA) and competition binding assays for the minimized constructs tested.

[4] = target: T3, IL-23 (human, p19/p40 heterodimer); assay: filter; non functional, lacks G doubles; conditions: tags: R&D Systems, carrier free
[5] = target: T3, IL-23 (human, p19/p40 heterodimer); assay: competition; direct +tRNA 69 nM; conditions: tags: R&D Systems, carrier free
Description: The fraction aptamer bound vs. [IL-23] was used to calculate the KD by fitting the following equation to the data: Fraction aptamer bound=amplitude*([IL-23]/(KD+[IL-23]))+background binding.
as §2

[6] = target: T3, IL-23 (human, p19/p40 heterodimer); assay: SPR; Biacore, IL-23 immobilized on CM3; HBS-P, 25 C; conditions: tags: R&D Systems, carrier free
Description: All biosensor binding measurements were performed at 25° C. using a BIACORE 2000 equipped with a research-grade CM3 biosensor chip (BIACORE Inc. Piscataway, N.J.). Purified recombinant human IL-23 (R&D Systems, Minnapolis, Minn.) was immobilized to the biosensor surface using amino-coupling chemistry. To achieve this, the surfaces of two flow cells were first activated for 7 minutes with a 1:1 mixture of 0.1 M NHS (Nhydroxysuccinimide) and 0.4 M EDC (3-(N,Ndimethylamine) propyl-N-ethylcarbodiimide) at a flow rate of 5 μl/min. After surface activation, one flow cell was injected with 50 μg/ml of IL-23 at rate of 10 μl/minute for 15 minutes to allow for establishment of covalent bonds to the activated surface. Next, 1 M ethanolamine hydrochloride pH 8.5 was injected for 7 min at rate of 5 μl/min to inactivate residual esters. As a negative control, a blank flow cell was prepared by injecting 1 M ethanolamine hydrochloride pH 8.5 continuously for 7 minutes to inactivate residual esters, without protein injection.
For IL-23 binding, aptamers were serially diluted into HBS-P buffer (10 mM HEPES pH7.4, 150 mM NaCl, 0.005% Surfactant 20). […] Rate constant and dissociation constant were calculated using BIAevaluation software.

[7] = target: T3, IL-23 (human, p19/p40 heterodimer); assay: filter; -tRNA; competition 8 nM; conditions: tags: R&D Systems, carrier free
Description: These molecules were gel purified and assayed for IL-23 binding using the dot blot assay as described above and compared to each other and to the parent molecule, ARC979. An 8 point IL-23 titration (0 nM to 300 nM, 3 fold serial dilutions) was used in the binding assay.

[8] = target: T3, IL-23 (human, p19/p40 heterodimer); assay: cell_activity; Pathscan pSTAT3, PHA blasts; conditions: tags: R&D Systems, carrier free
Description: (§3) PHA Blasts were isolated and prepared as described above and treated with hIL-23 at a final constant concentration of 6 ng/mL (R&D Systems, Minneapolis, Minn.) to induce STAT3 activation, instead of using 3 ng/mL as previously described with the TransAM™ assay. Clones were screened by using a 6-point […] titration from 0 to 700 nM in 3 fold dilutions in combination with a constant IL-23 concentration of 6 ng/mL of IL-23 (R&D Systems, Minneapolis, Minn.) to induce STAT3 activation, instead of using 3 ng/mL as previously described with the TransAM™ assay. Lysates of treated cells were prepared using the buffers provided by the Pathscan kit, and the assay was run according to the manufacturer's instructions. IC₅₀s for the full length clones were calculated from the dose response curves.

[9] = target: T3, IL-23 (human, p19/p40 heterodimer); assay: cell_activity; IL-23/IL-18 induced IFN-gamma, PHA blasts; conditions: tags: R&D Systems, carrier free
Description: (§4) PHA Blasts were isolated and prepared as described above. Once isolated, PHA Blasts were cultured for 4 days before use (with no re-feeding the night before use). After culturing for 4 days, an appropriate number of cells (enough for 0.5×10^6 cells per well) were collected, pelleted by centrifugation and washed with RPMI 1640 and 0.2% FBS (repeated twice). These cells were then serum starved by placement into 2, 150 mm sterile culture dishes with 25 mL of RPMI 1640-0.2% FBS each for 2-3 hours. Following serum starvation, cells were plated in a 96 well microtiter plate at a density of 0.5×10^6 cells per 200 μl of serum starved media.
(§5) IL-12/IL-18 or IL-23/IL-18 was used to induce IFN-γ production in PHA Blasts as follows. 10 μl of IL-23 (R&D Systems) at a concentration of 60 ng/mL (or 10 μl of IL-12 at a concentration of 20 ng/mL), and 10 μl of IL-18 (MBL) at a concentration of 200 ng/mL were added to the appropriate wells. […] Following incubation, 200 μl of supernatant was removed from each well and either flash frozen at −80° C., or quantified immediately for IFN-γ. An ELISA kit was used to quantify the IL-23/IL-18 and IL-12/IL-18 induced IFN-γ in PHA Blasts according to the manufacturer's recommended protocol (Recombinant human IFN-γ Quantikine Kit, R&D Systems, Minneapolis, Minn.). The colorimetric readout was quantified using a 96 well plate reader and absorbance values were graphed.

[10] = target: IL-12 (human, p35/p40 heterodimer) (Homo sapiens, UniProt P29459;P29460 SEQ:57-253,SEQ:23-328); assay: cell_activity; IL-12/IL-18 induced IFN-gamma, PHA blasts
Description: as §4, §5

[11] = target: T3, IL-23 (human, p19/p40 heterodimer); assay: filter; DPBS Ca Mg, 0.1 mg/mL BSA; conditions: tags: R&D Systems, carrier free
Description: The dot blot binding assay previously described was used to characterize the relative potency of the majority of the aptamers synthesized. For KD determination, chemically synthesized aptamers were purified using denaturing polyacrylamide gel electrophoresis, 5′end labeled with γ-³²P ATP and were tested for direct binding to full human IL-23. An 8 point protein titration was used in the dot blot binding assay (either {100 nM, 30 nM, 10 nM, 3 nM, 1 nM, 300 pM, 100 pM, 0 pM} or {10 nM, 3 nM, 1 nM, 300 pM, 100 pM, 30 pM, 10 pM, 0 pM}) in Dulbecco's PBS (with Mg⁺⁺ and Ca⁺⁺) with 0.1 mg/mL BSA. KD values were calculated by fitting the equation y=(max/(1+K/protein))+yint using KaleidaGraph (KaleidaGraph v. 3.51, Synergy Software). Sequences of the ARC979 derivatives synthesized, purified and assayed for binding to IL-23 as well as the results of the protein binding characterization are tabulated below in Tables 29 and 30.

[12] = target: T3, IL-23 (human, p19/p40 heterodimer); assay: cell_activity; Pathscan, +/-1; TransAM 40 nM; conditions: tags: R&D Systems, carrier free; G4
Description: as §3

T3 sequence (Q9NPF7 20-189, chain 1 of 2): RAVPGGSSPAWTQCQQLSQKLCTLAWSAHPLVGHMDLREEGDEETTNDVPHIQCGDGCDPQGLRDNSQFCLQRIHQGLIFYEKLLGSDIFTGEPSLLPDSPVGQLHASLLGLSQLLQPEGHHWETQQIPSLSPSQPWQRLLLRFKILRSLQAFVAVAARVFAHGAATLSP
T3 sequence (P29460 23-328, chain 2 of 2): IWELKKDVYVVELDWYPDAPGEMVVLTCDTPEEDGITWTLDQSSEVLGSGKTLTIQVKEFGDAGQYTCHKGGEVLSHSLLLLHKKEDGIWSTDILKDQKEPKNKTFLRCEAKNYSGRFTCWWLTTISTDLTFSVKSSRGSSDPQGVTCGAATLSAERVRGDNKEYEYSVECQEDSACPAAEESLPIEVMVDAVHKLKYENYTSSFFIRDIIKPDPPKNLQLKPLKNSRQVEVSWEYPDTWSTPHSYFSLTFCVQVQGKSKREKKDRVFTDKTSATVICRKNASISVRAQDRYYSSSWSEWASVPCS
Sequence of IL-12 (human, p35/p40 heterodimer) (P29459 23-219, chain 1 of 2): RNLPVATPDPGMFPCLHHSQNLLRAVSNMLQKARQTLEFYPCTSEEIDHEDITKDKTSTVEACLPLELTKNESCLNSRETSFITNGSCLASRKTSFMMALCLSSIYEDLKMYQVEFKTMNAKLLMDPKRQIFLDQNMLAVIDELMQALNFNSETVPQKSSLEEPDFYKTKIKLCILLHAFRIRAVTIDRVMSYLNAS
Sequence of IL-12 (human, p35/p40 heterodimer) (P29460 23-328, chain 2 of 2): as the sequence (P29460 23-328, chain 2 of 2) above

B1: AMX369.H1 (ARC1914) (ssRNA)
RNA: GGAGCGCACUCAGCCACCUGGGAAAAUCUGGGUCCCUGAGUUCUAACAGCAGAGAUUUUUCGACCUCUCUGCUAGC
modifications: 2'-F all C and U (rRfY)
Q: Which results are given for B1?
A: Kd [1]: 23 nM; Kd [2]: 194 nM

B2: ARC792 (mixed)
RNA: GGCAAGUAAUUGGGGAGUGCGGGCGGGG
modifications: deoxy A,G; 2'-OMe C,U
Q: How did the Kd [3] turn out when B2 was run?
A: 11 nM

B3: ARC793 (mixed)
RNA: CUACAAGGCGGUACGGGGAGUGUGG
modifications: deoxy A,G; 2'-OMe C,U
Q: Does B3 bind [4]?
A: no binding

B4: ARC794 (mixed)
RNA: GGCGGUACGGGGAGUGUGGGUUGGGGCCGG
modifications: deoxy A,G; 2'-OMe C,U
Q: Which Kd [5] does the source give for B4 here?
A: 14 nM

B5: ARC1988 (mixed)
RNA: ACAGGCAAGUAAUUGGGGAGUGCGGGCGGGGUGU
modifications: ARC1623 with 5'-amine-linked 40 kDa PEG; 2'-deoxy, 2'-OMe, PS, 3'-idT
Q: Which Kd [6] does the source give for B5 here?
A: ~2 nM

B6: ARC1163 (mixed)
RNA: ACAGGCAAGUAAUUGGGGAGUGCGGGCGGGGUGU
modifications: deoxy A,G; 2'-OMe C,U; PS 21-22 [PS between 21-22; 2'-OMe C,U at 2,6,10,13,14,21,23,27,32,34; deoxy A,G at all other positions]
Q: B6 was tested. Which Kd [7] did it give?
A: 49 nM

B7: ARC1624 (mixed)
RNA: ACAGGCAAGUAAUUGGGGAGUGCGGGCGGGGUGU
modifications: 2'-OMe C,U and G16,G17,G24,G25,G30,G31; other A,G deoxy; PS 25-26,27-28,28-29; 3'-idT [2'-OMe C2,C6,U10,U13,U14,G16,G17,U21,C23,G24,G25,C27,G30,G31,U32,U34; other A,G deoxy; PS 25-26,27-28,28-29 (N = PS linkage, left out); 3'-inverted dT 35]
Q: With B7 as the binder, how does the IC50 [8] read?
A: 2 nM

B8: ARC1988 (mixed)
RNA: ACAGGCAAGUAAUUGGGGAGUGCGGGCGGGGUGU
modifications: ARC1623 with 5' 40 kDa PEG; 3'-idT
Q: For B8, which IC50 [9] is on record?
A: ~4 nM

Q: And the IC50 [10]?
A: ~122 nM

B9: ARC1620 (mixed)
RNA: ACAGGCAAGUAAUUGGGGAGUGCGGGCGGGGUGU
modifications: 2'-OMe C,U and G16,G17,G24,G25,G30,G31; other A,G deoxy; PS 2-3; 3'-idT [PS 2-3; 2'-OMe at 2,6,10,13,14,16,17,21,23,24,25,27,30,31,32,34; other A,G deoxy; 3'-inverted dT at 35]
Q: B9 was tested. Which Kd [11] did it give?
A: 0.4 nM

B10: ARC979 (mixed)
RNA: ACAGGCAAGUAAUUGGGGAGUGCGGGCGGGGUGU
modifications: deoxy A,G; 2'-OMe C,U
Q: With B10 as the binder, how does the IC50 [12] read?
A: 6 nM
